Measurements taken from patent US20240174992A1, “SPLIT MODIFIED DEHALOGENASE VARIANTS” (Promega Corporation, priority 2022, published 2024).
Values belong to the substance of their own block, whether it stands above or below them.

What was measured:
Assay in all cases: cell-based or functional assay
HT(158-297)-FRB = HT(158-297)-FRB (UniProt P42345)
[196-297]-FRB = [196-297]-FRB (UniProt P42345)
HT(146-297)-FRB = HT(146-297)-FRB (UniProt P42345)
[1] = biological target: HT(23-297)-FRB fragment fused to LgBiT (UniProt P42345)
HaloTag[22-297](M2F)-FRB = HaloTag[22-297](M2F)-FRB (UniProt P42345)
[2] = biological target: HaloTag[22-297](Q145H+P154R)-FRB (UniProt P42345)
Sequence of HaloTag[22-297](Q145H+P154R)-FRB (P42345 other isoform, or with tags, fused parts or gaps Q145H P154R Q145H P154R): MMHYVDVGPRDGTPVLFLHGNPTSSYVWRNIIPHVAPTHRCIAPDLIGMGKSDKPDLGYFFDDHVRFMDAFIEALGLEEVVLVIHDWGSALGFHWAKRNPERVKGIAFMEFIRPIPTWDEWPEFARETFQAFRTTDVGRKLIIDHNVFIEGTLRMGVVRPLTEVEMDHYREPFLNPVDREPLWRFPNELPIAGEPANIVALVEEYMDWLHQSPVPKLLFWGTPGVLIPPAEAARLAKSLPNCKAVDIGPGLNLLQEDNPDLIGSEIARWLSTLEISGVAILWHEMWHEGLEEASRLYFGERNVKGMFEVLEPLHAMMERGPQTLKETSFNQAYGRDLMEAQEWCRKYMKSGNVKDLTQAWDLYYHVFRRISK

Sequence of EGFP-FKBP-HaloTag[3-19] (P62942 other isoform, or with tags, fused parts or gaps): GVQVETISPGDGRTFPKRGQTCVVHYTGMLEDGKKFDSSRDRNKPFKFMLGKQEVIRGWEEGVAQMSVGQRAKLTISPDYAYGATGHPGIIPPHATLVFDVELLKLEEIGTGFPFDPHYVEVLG
Sequence of HaloTag[22-297](M2F)-FRB (P42345 other isoform, or with tags, fused parts or gaps): as the sequence (P42345 other isoform, or with tags, fused parts or gaps Q145H P154R Q145H P154R) above, with M2F, H145Q, R154P counted along it
Sequence of [1-195]-FKBP (P62942 other isoform, or with tags, fused parts or gaps): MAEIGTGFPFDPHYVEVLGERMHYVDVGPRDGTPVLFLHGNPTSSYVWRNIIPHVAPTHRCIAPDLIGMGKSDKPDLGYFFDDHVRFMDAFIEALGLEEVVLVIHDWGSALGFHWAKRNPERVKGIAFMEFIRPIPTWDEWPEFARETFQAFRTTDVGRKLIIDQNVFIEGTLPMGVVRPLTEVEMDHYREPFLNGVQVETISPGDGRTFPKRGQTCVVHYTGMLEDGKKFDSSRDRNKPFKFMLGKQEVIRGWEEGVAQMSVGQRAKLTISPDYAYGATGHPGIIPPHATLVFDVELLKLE
Sequence of FKBP-HT(1-33) fragment as SmBiT or HiBiT fragment fusions (P62942 other isoform, or with tags, fused parts or gaps): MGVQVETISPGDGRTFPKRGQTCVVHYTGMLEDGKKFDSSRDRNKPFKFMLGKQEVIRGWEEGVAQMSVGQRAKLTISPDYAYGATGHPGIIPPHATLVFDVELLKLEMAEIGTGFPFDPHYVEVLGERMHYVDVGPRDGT
Sequence of HT(23-297)-FRB fragment fused to LgBiT (P42345 other isoform, or with tags, fused parts or gaps): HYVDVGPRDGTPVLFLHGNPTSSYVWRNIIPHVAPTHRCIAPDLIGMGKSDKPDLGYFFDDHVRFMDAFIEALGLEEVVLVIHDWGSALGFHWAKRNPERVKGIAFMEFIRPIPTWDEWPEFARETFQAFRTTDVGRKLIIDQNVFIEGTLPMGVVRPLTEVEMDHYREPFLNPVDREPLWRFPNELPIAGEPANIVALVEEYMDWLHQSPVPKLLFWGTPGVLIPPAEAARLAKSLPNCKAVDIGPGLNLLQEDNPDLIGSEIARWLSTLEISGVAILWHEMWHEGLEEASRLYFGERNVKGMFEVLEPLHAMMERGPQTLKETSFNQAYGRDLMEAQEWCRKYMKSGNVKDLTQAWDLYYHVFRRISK
Sequence of [196-297]-FRB (P42345 other isoform, or with tags, fused parts or gaps limits assumed): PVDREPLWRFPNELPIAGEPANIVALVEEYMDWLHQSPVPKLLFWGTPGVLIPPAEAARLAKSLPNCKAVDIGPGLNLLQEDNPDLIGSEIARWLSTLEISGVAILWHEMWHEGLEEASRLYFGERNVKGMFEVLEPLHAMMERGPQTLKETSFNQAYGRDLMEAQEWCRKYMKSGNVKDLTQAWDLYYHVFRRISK
Sequence of HT(146-297)-FRB (P42345 other isoform, or with tags, fused parts or gaps limits assumed): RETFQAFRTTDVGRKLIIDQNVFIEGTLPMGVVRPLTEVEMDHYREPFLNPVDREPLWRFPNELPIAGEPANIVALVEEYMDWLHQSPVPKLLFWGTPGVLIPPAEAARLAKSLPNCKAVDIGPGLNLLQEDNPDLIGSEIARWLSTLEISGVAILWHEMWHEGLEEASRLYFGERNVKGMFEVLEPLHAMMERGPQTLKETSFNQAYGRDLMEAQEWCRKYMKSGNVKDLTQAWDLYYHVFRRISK
Sequence of HT(1-145)-FKBP (P62942 other isoform, or with tags, fused parts or gaps): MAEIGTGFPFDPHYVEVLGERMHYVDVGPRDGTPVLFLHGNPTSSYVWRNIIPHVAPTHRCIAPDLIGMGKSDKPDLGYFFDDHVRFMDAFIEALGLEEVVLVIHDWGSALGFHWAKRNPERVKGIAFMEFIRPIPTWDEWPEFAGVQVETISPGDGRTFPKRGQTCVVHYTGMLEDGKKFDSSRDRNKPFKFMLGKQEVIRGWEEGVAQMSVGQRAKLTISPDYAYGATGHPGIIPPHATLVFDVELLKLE
Sequence of HT(1-157)-FKBP (P62942 other isoform, or with tags, fused parts or gaps): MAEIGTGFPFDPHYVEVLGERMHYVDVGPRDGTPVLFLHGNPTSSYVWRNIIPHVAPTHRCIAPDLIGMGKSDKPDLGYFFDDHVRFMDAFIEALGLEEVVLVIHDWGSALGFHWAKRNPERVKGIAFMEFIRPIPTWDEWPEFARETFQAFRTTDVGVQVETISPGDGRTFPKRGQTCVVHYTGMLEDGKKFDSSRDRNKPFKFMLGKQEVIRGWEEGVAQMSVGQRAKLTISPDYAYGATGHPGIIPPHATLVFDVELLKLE
Sequence of HT(158-297)-FRB (P42345 other isoform, or with tags, fused parts or gaps limits assumed): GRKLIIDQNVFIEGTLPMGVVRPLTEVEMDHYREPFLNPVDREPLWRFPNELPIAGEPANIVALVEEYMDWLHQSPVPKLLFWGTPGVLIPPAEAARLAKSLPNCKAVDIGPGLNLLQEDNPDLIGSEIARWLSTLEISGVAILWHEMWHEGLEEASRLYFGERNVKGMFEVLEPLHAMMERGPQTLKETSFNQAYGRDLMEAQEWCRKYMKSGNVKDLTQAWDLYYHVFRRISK

Substance: HT(1-145)-FKBP (from UniProt P62942 2-108)
fold increase of JF646 and JF585 fluorescence in live HeLa cells with 50 nM rapamycin (HT(146-297)-FRB): < 2 fold

Substance: FKBP-HT(1-33) fragment as SmBiT or HiBiT fragment fusions (from UniProt P62942 1-108)
fold increase in NanoBiT luminescence on addition of rapamycin [1]: 100 to 250 fold

Next, values leading:

fold increase of JF646 and JF585 fluorescence in live HeLa cells with 50 nM rapamycin (HT(158-297)-FRB): < 2 fold
Substance: HT(1-157)-FKBP (from UniProt P62942 2-108)

fold increase in JF646 fluorescence with 50 nM rapamycin (E. coli lysates) ([196-297]-FRB): 4.7 fold
fold increase of JF646 and JF585 fluorescence in live HeLa cells with 50 nM rapamycin ([196-297]-FRB): < 2 fold
Substance: [1-195]-FKBP (from UniProt P62942 2-108)

S:B ratio in +rapamycin/-rapamycin conditions, live HeLa imaging (HaloTag[22-297](M2F)-FRB): 6.7
signal-to-background ratio, complemented split HaloTag with rapamycin over the large HaloTag alone (HaloTag[22-297](M2F)-FRB): 16
S:B ratio in +rapamycin/-rapamycin conditions, live HeLa imaging [2]: 4
fold response of JF646 fluorescence to rapamycin, live HeLa imaging [2]: 25 fold
signal-to-background ratio, complemented split HaloTag with rapamycin over the large HaloTag alone [2]: 5.7
Substance: EGFP-FKBP-HaloTag[3-19] (from UniProt P62942 2-108)
